Experiments:
S. suis 7997 (ST9) = experiment: ΔPlySs1 CFU analysis; type: cell-based; settings: 1 hr
Protocol: (§1) Given the above experiments, the following optimal buffering conditions were employed for all further in vitro experiments with ΔPlySs1: 20 mM phosphate buffer, pH=7.8, 2 mM EDTA. A range of lysin concentrations, from 6.5-130 μg/ml, were introduced to live S. suis cells in this buffer. Three strains were considered particularly relevant: 7711, the serotype 7 strain that encodes PlySs1; 5735, the serotype 2 reference strain; and 7997, a highly virulent serotype 9 strain. In terms of bacterial viability, only the highest PlySs1-concentration (130 μg/ml) led to a >90% decrease in CFUs for 7711, S735, and 7997 after 1 hr treatment (TABLE 2). The lysin was also tested against actively-dividing cells in broth culture (strain 7711) (FIG. 20).
(§2) For two ΔPlySs1 concentrations (130 and 13 μg/ml), CFU analysis was conducted on S. suis strains 5735, 7997, and 7711 after 1 hr treatment (optimal buffering conditions). In each experiment, the percentage-decrease in CFUs was determined for the treated sample versus the untreated. The range of the values observed (across 3 independent experiments) is reported here for each strain. The serotype of each strain is indicated in parentheses.

S. suis 7711 (ST7) = experiment: ΔPlySs1 CFU analysis; type: cell-based; settings: 1 hr
Protocol: as §1, §2

S. suis 5735 (ST2) = experiment: ΔPlySs1 CFU analysis; type: cell-based; settings: 1 hr
Protocol: as §1, §2

S. pyogenes D471 = experiment: ΔPlySs1 OD600 lysis, 1 hr; type: cell-based
S. dysgalactiae GGS = experiment: ΔPlySs1 OD600 lysis, 1 hr; type: cell-based
S. equi 9528 = experiment: ΔPlySs1 OD600 lysis, 1 hr; type: cell-based
S. suis strain 7711 = experiment: ΔPlySs1 growth inhibition in BHI broth; type: cell-based; settings: strain 7711 in BHI broth, overnight
Protocol: The optical density of each sample was measured continuously overnight in 96-well plate format. Overall, bacterial growth was delayed in a dose-dependent manner. However, for enzyme-concentrations that were sufficient to induce lysis in buffered solutions (130 and 50 μg/ml), the effect was quite minimal here. […] For all of the treated samples, one will note that the final optical densities are actually higher than that of the untreated sample. This is an artifact of the accumulation of aggregated bacterial debris that occurred in the presence of lytic enzyme.
as §1

M. luteus 4698 = experiment: ΔPlySs1 OD600 lysis, 1 hr; type: cell-based
[1] = test system: Group E streptococci K131; experiment: ΔPlySs1 OD600 lysis, 1 hr; type: cell-based
S. uberis 27598 = experiment: ΔPlySs1 OD600 lysis, 1 hr; type: cell-based
S. gordonii 10558 = experiment: ΔPlySs1 OD600 lysis, 1 hr; type: cell-based
S. agalactiae 090R = experiment: ΔPlySs1 OD600 lysis, 1 hr; type: cell-based
S. dysgalactiae 21597 = experiment: ΔPlySs1 OD600 lysis, 1 hr; type: cell-based
S. mutans U159 = experiment: ΔPlySs1 OD600 lysis, 1 hr; type: cell-based
S. agalactiae type II = experiment: ΔPlySs1 OD600 lysis, 1 hr; type: cell-based
S. sobrinus 6715 = experiment: ΔPlySs1 OD600 lysis, 1 hr; type: cell-based
[2] = test system: purified S. suis cell walls (from type strain 5735); experiment: PlySs1 bond specificity, double digestion with HEWL, mass spectrum; type: biochemical; settings: double digestion with HEWL and PlySs1
Source text: To determine the bond specificity of the enzymatic domain of PlySs1, purified S. suis cell walls (from type strain 5735) were subject to double digestion with HEWL (a muramidase) and PlySs1. The two predominant peaks were m/z=718 and m/z=734. This corresponds exactly to the predicted masses of the [Na-M]+ and [K-M]+ adducts of GlcNAc-MurNAc-LAla-D-Gln. […] When a mass spectrum was taken of undigested cell wall, the above two peaks were absent.

B. subtilis SL4 = experiment: ΔPlySs1 OD600 lysis, 1 hr; type: cell-based
S. rattus BHT = experiment: ΔPlySs1 OD600 lysis, 1 hr; type: cell-based

B1: ΔPlySs1: truncated PlySs1 lysin with N-terminal enzymatic and central binding domains, N-terminal 254 amino acids, SEQ ID NO:2 (protein, listed as Streptococcus suis)
chain: MTINLETSIRWMSDRVGKVSYSMDYRNGPNSYDCSSAVYYALMAGGAISAGWAVNTEYMHDWLIRNGYVLVAENKPFNAQRHDVCILGKRGYSSGAGGHVVIFVDNVNVIHCNYARNGISIDNYNQVHRGMYYYLYRPANQPSISNKSLDQLVKETLAGVHGNGDTRKASLGSQYEAVMAVINGKASASEKSDEELAREVLAGKHGAGEDRKRSLGPRYEPVQAKVNELLKAKEKPSETAKNEPQTVQFKEDGDL
B1 was tested, and the “percentage-decrease in CFUs, treated versus untreated (range of 3 experiments)” value (“percentage-decrease in CFUs” below) (S. suis 7997 (ST9); 13 μg/ml) was 16.8%-30.3%, the “percentage-decrease in CFUs” value (S. suis 7997 (ST9); 130 μg/ml) was 89.9%-93.9% and the “percentage-decrease in CFUs” value (S. suis 7997 (ST9); 130 μg/ml, listed as PlySs1) was > 90%. For the same molecule, the “percentage-decrease in CFUs” value (S. suis 7711 (ST7); 13 μg/ml) was 0%-35.6%, the “percentage-decrease in CFUs” value (S. suis 7711 (ST7); 130 μg/ml) was 95.3%-99.2% and the “percentage-decrease in CFUs” value (S. suis 7711 (ST7); 130 μg/ml, listed as PlySs1) was > 90%. For the same molecule, the “percentage-decrease in CFUs” value (S. suis 5735 (ST2); 13 μg/ml) was 80.4%-92.6%, the “percentage-decrease in CFUs” value (S. suis 5735 (ST2); 130 μg/ml) was 95.4%-99.5% and the “percentage-decrease in CFUs” value (S. suis 5735 (ST2); 130 μg/ml, listed as PlySs1) was > 90%. The “1-hour treated/untreated OD600-ratio” value (S. pyogenes D471; 6.5 μg/ml) was 0.39, the “1-hour treated/untreated OD600-ratio” value (S. pyogenes D471; 13 μg/ml) was 0.27 and the “1-hour treated/untreated OD600-ratio” value (S. pyogenes D471; 30 μg/ml) was 0.17. For the same molecule, the “1-hour treated/untreated OD600-ratio” value (S. pyogenes D471; 65 μg/ml) was 0.13, the “1-hour treated/untreated OD600-ratio” value (S. pyogenes D471; 130 μg/ml) was 0.09 and the “1-hour treated/untreated OD600-ratio” value (S. dysgalactiae GGS; 6.5 μg/ml) was 0.30. For the same molecule, the “1-hour treated/untreated OD600-ratio” value (S. dysgalactiae GGS; 13 μg/ml) was 0.27, the “1-hour treated/untreated OD600-ratio” value (S. dysgalactiae GGS; 30 μg/ml) was 0.15 and the “1-hour treated/untreated OD600-ratio” value (S. dysgalactiae GGS; 65 μg/ml) was 0.11. The “1-hour treated/untreated OD600-ratio” value (S. dysgalactiae GGS; 130 μg/ml) was 0.14, the “1-hour treated/untreated OD600-ratio” value (S. equi 9528; 6.5 μg/ml) was 0.66 and the “1-hour treated/untreated OD600-ratio” value (S. equi 9528; 13 μg/ml) was 0.45. For the same molecule, the “1-hour treated/untreated OD600-ratio” value (S. equi 9528; 30 μg/ml) was 0.25, the “1-hour treated/untreated OD600-ratio” value (S. equi 9528; 65 μg/ml) was 0.19 and the “1-hour treated/untreated OD600-ratio” value (S. equi 9528; 130 μg/ml) was 0.16. For the same molecule, the “growth inhibition of actively-dividing cells” value (S. suis strain 7711) was “could not inhibit S. suis growth outright”, the “1-hour treated/untreated OD600-ratio” value (M. luteus 4698; 6.5 μg/ml) was 0.84 and the “1-hour treated/untreated OD600-ratio” value (M. luteus 4698; 13 μg/ml) was 0.90. For the same molecule, the “1-hour treated/untreated OD600-ratio” value (M. luteus 4698; 30 μg/ml) was 0.83, the “1-hour treated/untreated OD600-ratio” value (M. luteus 4698; 65 μg/ml) was 0.87 and the “1-hour treated/untreated OD600-ratio” value (M. luteus 4698; 130 μg/ml) was 0.82. For the same molecule, the “1-hour treated/untreated OD600-ratio” value ([1]; 6.5 μg/ml) was 0.69, the “1-hour treated/untreated OD600-ratio” value ([1]; 13 μg/ml) was 0.50 and the “1-hour treated/untreated OD600-ratio” value ([1]; 30 μg/ml) was 0.33. For the same molecule, the “1-hour treated/untreated OD600-ratio” value ([1]; 65 μg/ml) was 0.22, the “1-hour treated/untreated OD600-ratio” value ([1]; 130 μg/ml) was 0.15 and the “1-hour treated/untreated OD600-ratio” value (S. uberis 27598; 6.5 μg/ml) was 0.42. For the same molecule, the “1-hour treated/untreated OD600-ratio” value (S. uberis 27598; 13 μg/ml) was 0.23, the “1-hour treated/untreated OD600-ratio” value (S. uberis 27598; 30 μg/ml) was 0.16 and the “1-hour treated/untreated OD600-ratio” value (S. uberis 27598; 65 μg/ml) was 0.14. For the same molecule, the “1-hour treated/untreated OD600-ratio” value (S. uberis 27598; 130 μg/ml) was 0.12, the “1-hour treated/untreated OD600-ratio” value (S. gordonii 10558; 6.5 μg/ml) was 0.76 and the “1-hour treated/untreated OD600-ratio” value (S. gordonii 10558; 13 μg/ml) was 0.32. For the same molecule, the “1-hour treated/untreated OD600-ratio” value (S. gordonii 10558; 30 μg/ml) was 0.19, the “1-hour treated/untreated OD600-ratio” value (S. gordonii 10558; 65 μg/ml) was 0.09 and the “1-hour treated/untreated OD600-ratio” value (S. gordonii 10558; 130 μg/ml) was 0.06. For the same molecule, the “1-hour treated/untreated OD600-ratio” value (S. agalactiae 090R; 6.5 μg/ml) was 0.97, the “1-hour treated/untreated OD600-ratio” value (S. agalactiae 090R; 13 μg/ml) was 0.99 and the “1-hour treated/untreated OD600-ratio” value (S. agalactiae 090R; 30 μg/ml) was 0.97. For the same molecule, the “1-hour treated/untreated OD600-ratio” value (S. agalactiae 090R; 65 μg/ml) was 0.98, the “1-hour treated/untreated OD600-ratio” value (S. agalactiae 090R; 130 μg/ml) was 0.93 and the “1-hour treated/untreated OD600-ratio” value (S. dysgalactiae 21597; 6.5 μg/ml) was 0.26. For the same molecule, the “1-hour treated/untreated OD600-ratio” value (S. dysgalactiae 21597; 13 μg/ml) was 0.18, the “1-hour treated/untreated OD600-ratio” value (S. dysgalactiae 21597; 30 μg/ml) was 0.12 and the “1-hour treated/untreated OD600-ratio” value (S. dysgalactiae 21597; 65 μg/ml) was 0.10. The “1-hour treated/untreated OD600-ratio” value (S. dysgalactiae 21597; 130 μg/ml) was 0.09, the “1-hour treated/untreated OD600-ratio” value (S. mutans U159; 6.5 μg/ml) was 0.95 and the “1-hour treated/untreated OD600-ratio” value (S. mutans U159; 13 μg/ml) was 0.99. For the same molecule, the “1-hour treated/untreated OD600-ratio” value (S. mutans U159; 30 μg/ml) was 0.94, the “1-hour treated/untreated OD600-ratio” value (S. mutans U159; 65 μg/ml) was 0.76 and the “1-hour treated/untreated OD600-ratio” value (S. mutans U159; 130 μg/ml) was 0.85. The “1-hour treated/untreated OD600-ratio” value (S. agalactiae type II; 6.5 μg/ml) was 0.61, the “1-hour treated/untreated OD600-ratio” value (S. agalactiae type II; 13 μg/ml) was 0.21 and the “1-hour treated/untreated OD600-ratio” value (S. agalactiae type II; 30 μg/ml) was 0.11. For the same molecule, the “1-hour treated/untreated OD600-ratio” value (S. agalactiae type II; 65 μg/ml) was 0.08, the “1-hour treated/untreated OD600-ratio” value (S. agalactiae type II; 130 μg/ml) was 0.04 and the “1-hour treated/untreated OD600-ratio” value (S. sobrinus 6715; 6.5 μg/ml) was 0.64. The “1-hour treated/untreated OD600-ratio” value (S. sobrinus 6715; 13 μg/ml) was 0.48, the “1-hour treated/untreated OD600-ratio” value (S. sobrinus 6715; 30 μg/ml) was 0.39 and the “1-hour treated/untreated OD600-ratio” value (S. sobrinus 6715; 65 μg/ml) was 0.32. For the same molecule, the “1-hour treated/untreated OD600-ratio” value (S. sobrinus 6715; 130 μg/ml) was 0.23, the “bond specificity of the enzymatic domain” value [2] was “gamma-endopeptidase activity” and the “1-hour treated/untreated OD600-ratio” value (B. subtilis SL4; 6.5 μg/ml) was 1.07. For the same molecule, the “1-hour treated/untreated OD600-ratio” value (B. subtilis SL4; 13 μg/ml) was 1.05, the “1-hour treated/untreated OD600-ratio” value (B. subtilis SL4; 30 μg/ml) was 1.04 and the “1-hour treated/untreated OD600-ratio” value (B. subtilis SL4; 65 μg/ml) was 1.03. For the same molecule, the “1-hour treated/untreated OD600-ratio” value (B. subtilis SL4; 130 μg/ml) was 0.96, the “1-hour treated/untreated OD600-ratio” value (S. rattus BHT; 6.5 μg/ml) was 0.82 and the “1-hour treated/untreated OD600-ratio” value (S. rattus BHT; 13 μg/ml) was 0.84. The “1-hour treated/untreated OD600-ratio” value (S. rattus BHT; 30 μg/ml) was 0.82, the “1-hour treated/untreated OD600-ratio” value (S. rattus BHT; 65 μg/ml) was 0.83 and the “1-hour treated/untreated OD600-ratio” value (S. rattus BHT; 130 μg/ml) was 0.79.

From patent US20140179594A1, “STREPTOCOCCUS BACTERIOPHAGE LYSINS FOR TREATMENT OF GRAM POSITIVE BACTERIA IN COMPANION ANIMALS AND LIVESTOCK” (priority 2011, published 2014)
